Measured values reported in patent US20030091990A1, “Methods and compositions involving thymidine phosphorylase as a marker for HIV infection, aids progression, and drug resistance” (priority 2001, published 2003).

Test system: resting CD4+ T lymphocytes
Assay: Affymetrix GeneChip Expression Analysis of resting CD4+ T lymphocytes
Format: cell-based
Settings: incubated 3 hrs at 37° C.; Human Genome U95A chips; fold changes from +2.0 to -2.0 removed; comparison with Mock control
Experimental: To investigate the changes in RNA expression of resting CD4+ T lymphocytes by HIV-1, Affymetrix GeneChip® Expression Analysis was done. Purified resting CD4+ T lymphocytes (purity of >98%) prepared from a healthy donor by StemCell™ magnetic column technique were incubated with HIV-1213 ((M.O.I. 0.5-1), IL-16 (10 ng/ml), or MHC II peptide (50 μM, RK1) in a 37° C. humidified 5% CO2 incubator for 3 hrs). Then, total cytoplasmic RNA was extracted by using RNA isolation kit (Qiagen) according to the manufacturer's instructions. Isolated RNA was applied on the Human Genome U95A chips, containing 12,626 full-length genes (Affymetrix, Santa Clara, Calif.). Data were generated from hybridization intensities measured on GeneChip expression probe arrays and analyzed by GeneChip software provided by Affymetrix. In order to compare gene expression levels between two samples (Mock, HIV213, IL-16 and MHC II peptide), Comparison Analysis was performed on data from two separate probe array experiments by determining the relative changes in abundance for each transcript. All moderate increase, moderate decrease and no change were removed. All fold changes from +2.0 to −2.0 were also removed. […] TP (PDECGF) was one of the molecules that have shown great change in its mRNA level when CD4 T cells were signalled with HIV (48 fold change). […]

B1: IL-16: IL-16 (10 ng/ml) incubated with resting CD4+ T lymphocytes (protein, UniProt Q14005 1212-1332, looked up)
Interleukin-16: SAASASAASDVSVESTAEATVCTVTLEKMSAGLGFSLEGGKGSLHGDKPLTINRIFKGAASEQSETVQPGDEILQLGGTAMQGLTRFEAWNIIKALPDGPVTIVIRRKSLQSKETTAAGDS
In the case of B1, the “genes changed vs. Mock” value is reported as 84 genes.
